Assay results: the nanobody polyreactivity screen of Harvey et al. (2022)

Assay: yeast display, Sf9 membrane polyspecificity reagent, FACS + sequencing; frameworks hold sequencing errors
Procedure, shortened: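 A synthetic nanobody library was expressed on Saccharomyces cerevisiae BJ5465 by galactose induction for 36–48 hours. The library was stained for 1 hour at 4 °C with 10% biotinylated, detergent-solubilized Sf9 membrane reagent and enriched with streptavidin microbeads before FACS. Low and high (top ~1%) gates were set on anti-HA fluorescence for expression and streptavidin fluorescence for reagent binding, and each polyreactivity label reflects the gate of origin.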

| Sequence | polyreactivity (PSR sort gate) |
| --- | --- |
| QVQLVESGGGLVQAGGSLRLSCAASGSTFTIYAMGWYRQAPGKERELVAGITRVGSTNYADSVKGRFTISRDNAKYTVYLQMNSLKPEDTAVYYCARRDLFQAGYEYWGQGTQVTVSS | low polyreactivity |
| QVQLVESGGGLVQAGGSLRLSCAASGSTFGGYVMGWYRQAPGKERELVAAISRSGASTYYADSVKGRFTISRDNAKNTVYLQMNSLKPEDTAVYYCAAYQARGMDYWGQGTQVTVSS | high polyreactivity |
| QVQLVESGGGLVQAGGSLRLSCAASVRTFYYYAMGWYRQAPGKERELVARISRGGSTNYADSVKGRFTISRDNAKNTVYLLMNSLKTEDTAVYYCAKSISYTGRYWGYDYWGQGTQVTVSS | high polyreactivity |
| QVQLVESGGGLVQAGGSLRLSCAASGITFCDNTMGWYRQAPGKERELVAAITYSSTSTYYADSVKGRFTISRDNAKNTVYLQMNSLKTEDTAVYYCAAEGPGDVVSTDYDFWGQGTQVTVSS | low polyreactivity |
| QVQLVESGGGLVQAGGSLRLICAASGRTFGRNAMGWYRQAPGKERELVAAISYGGGSTYYADSVKGRFTISRDNAKNTVYLQMNSLKPEDTPGSAAAARYAYGMWGQGTQVTVSS | low polyreactivity |
| QVQLVESGGGLVQAGGSLRLSCAASGGTFYVNAMGWYRQAPGKERELVADISYSGGRTYYADSVKGRFTISRDNAKKTVYLQMNSLKPEDTAVYYCAADPYWVGYGSPFGYWGQGTQVTVSS | high polyreactivity |
| QVQLVESGGGLVQAGGSLRLSCAASGRTFYGNAMGWYRQAPGKERELVAGITRGGSTYYADSVKGRFTISRDNAKITVYLQMNSLKPEDTAVYYCAARAYYARFLMGYWGQVTQVTVSS | high polyreactivity |
| QVQLVESGGGLVQAGGSLRLSCAASGRIFGVNAMGWYRQAPGKERELVAAISSNGGRTYYADSVKGRFTISRDNAKNTVYLQMNSLKPEDTAVYYCATRSSVGARHYYWGQGTQVTVSS | high polyreactivity |
| QVQLVESGGGLVQAGGSLGLSCAASGRTFFDYAMGWYRQAPGKERELVAAINWSGGRTYYADSVKGRFSISRDNAKNTVYLQMNSLKPEDTAVYDCNVYTRGRYEYWGQGTQVTVSS | low polyreactivity |
| QVKLVESGGGLVQAGGSLRLSCADSGLIFYKYAMGWYRKAPGKERELVAAITSGGSTNYADSVKGRFTISRDNAKNTVYLQMNSLKPEDTAVYYCNADYNHYLVVRWWYPPVDYWGQGTQVTVSS | low polyreactivity |
| QVQLVESGGGLVQAGGSLRLSCAASGGTVKYYAMGWSRQSPGKERELVAAITWSGGSTYYADSVKGRFTISRDNAKNTVYLQMNSLKPEDTAVYYCNAAYSQISFNYWGQGTQVTVSS | high polyreactivity |
| QVQLVESGGGLFQAGGSLRLSCAASGSTFVWYAMGWYRQAPGKEREFVAANTNSGGSTYYADSVKGRFTISRDTAKNTVYLQMNILKPEDTAVYYCAAQSYYFSYHYDYWGQGTQVTVSS | low polyreactivity |
| QVQLVESGGGLVQAGGSLRLSCAASGTFGGYAMGWYRQAPGKEREFVAAIDYGGGSTYYADSVKGRFTMSRDNAKNTVYLQMNSLKPEDTAVYYCAAEHWGYTYDQDFSTWATIYEYWGQGTQVTVSS | high polyreactivity |
| QVQLVESGGGLVQAGGSLRLSCAASGRTFPLYAMGWYRQAPGKERELVAAISLSGGRTYYADSVKGRFTISRDNAKNTVYLQMNSLKPEDTAVYYCAARGTLSAQVGIRRYDYWGQGTQVTVSS | low polyreactivity |
| QVQLVESGGGLVQAGGSLRLSCAASGSTFTLYAMGWYRQAPGKERELVAAISWSSGSTYYADSVKGRFTISRDNAKNTVYLQMNSLKPEDTAVYYCNARRFGLTQYYYWGQGTQVTVSS | low polyreactivity |
| QVQLVESGGGLVQAGGSLRLSCAASGIIFWWYAMGWSRQAPGKERELVAAISGTGGSTYYADSVKGRFTISRDNAKNTVYLQMNSLKPEDTAVYYCAKRASPFWRGYDSWGQGTQVTVSS | low polyreactivity |
| QVQLVESGRGLVQAGGSLRLSCAASGFTFGYYAMGWYRQAPGKERELVAAITSSGGTTYYADSVKGRFTISRDNAKNTVYLQMNSLKPEDTAVYYCAAEAQYYVVDPYGYDYWGQGTQVTVSS | low polyreactivity |
| QVQLVESGGGLVQAGGSLRISCAASGRIFSWYVMGWYRQAPGKERELVAAISSGGSTYYADSVKGRFTISRDNAKNTVSFQMNSLKPEDTAVYYCAVRPYVYRIGASRLDYWGQGTQVTVSS | high polyreactivity |
| QVQLVESGGGLVQAGGSLRLSCAASGRIFNYYAMGWYRQAPGKERELVASITSRGGTTYYADSVKGRFTISRDKAKKTVYLQMNSLIPEDTAVYYCAAFTRPVSRRSRMNYWGQGTQVTVSS | high polyreactivity |
| QVQLVESGGGLVQAGGSLRLSCAASGLIFYDNMGWYRQAPGKERELVAAISSSGGSTSYADSVKGRFTISRDNAKNTVYFLMNSLKPEDTAVYYCAADQYYYWYTHQSIGYDYWGQGTQVTVSS | low polyreactivity |
| QVQLVESGGGLVQAGGSLRLSCAASGFTFPYYAMGWYRQAPGKERELVAAISTRGGSTYYADSVKGRFTISRDNAKNTVYLQMKSLKPEDTAVYYCAADPGRVTRVGVRYYYWGQGTQVTVSS | high polyreactivity |
| QVQLVASGGGLVQSGGSLRLSCAASGTTFGYYAMGWYIQAPGKERELVAAITKSGGSTFYAESVKGRFTISRDNAKNTVYLQMNSLKPEDTAVYYCAARYKGQYYRQGRHDYWGQGTQVTVSS | high polyreactivity |
| QVQLVESGGGLVQAGGSLRLSCAATGFTSYLYTMGGYRQAAGKERELVAAISNSGGNTYYADSVKGRFTISRDNANNTVYLQMNSLKPEDTAVYYCAARLFAAKYRYGYWGQGTQVTVSS | high polyreactivity |
| QVQLVESGVGLVQAGGSLRLSCAASGNTFTAYSMGWYRQAPGKERELVAAISSSGRTNYADSVKGRFTISRDNAKNTVYLQMNSLKPADTAVYYCAAAALRRNGVREGNYWGQGTQVTVSS | high polyreactivity |
| QVQLVESGGGLVQAGGSLRLSCAASGSTFQFNFMGWYRQAPGKERELVAAITSGASTYYADSVKGRFTISRDNAMNTVYLQMNSLEPEDTAVYYCAVDYSFRYDYVQRYYYLGQGTQVTVSS | high polyreactivity |
| QVQLVESGGGLVHAGGSLRLSCAAYGSTSLVNAMGWYRQAPGKERELVAAITRGGNTYYADSVKGRFTISRDNAKNTVYLQMNSLKPEDTAVYYCAAEDHTEQGQYDYWGQGTQVTVSS | low polyreactivity |
| QVQLVESGGGLVQAGASLRLRCAASGRTFYYKTMGWYRQAPGKERELVAAITRNGGSTYYADSVKGRFTISRDKAKNTVYLQMKSLKLEDTAVYSCGAEGPSHRLNVRQVKGSDSWGQGTQVSVSS | low polyreactivity |
| QVQLVESGGGLVQAGGSLRLSSAACGTIFVLNAMGWYRPAPGKERELVAAITNVGSTYYADSVKGRFTISRDNAKNTFYLQMNSLKPEDTAVYYCNADPGEVLVGYDYWGQGTQVTVSS | low polyreactivity |
| QVQLVESGGGLVQAGGSLRLSCAASGNTFYRNAMGWYRQAPGKERELVAAISTTGVSTYYADSVKGRFTISRDNAKNTVYVQMTSLKPEDTAVYYCAAEIIGYHTIYDYWGQGTQVTVSS | low polyreactivity |
| QVQLLESGGGLVQAGGSLRLSCAATRRIFEYNGMGWYRQAPGKDSELVAAIEWNGSPTYADSVKGRFTIARDNAKNTVYLLMNSLKPEDTSVYYCAKAYPGKAPKYDYWGQGTQVTVSS | low polyreactivity |
